# Test results published in paper PMC2568053, “Relevance of the Diversity among Members of the Trypanosoma Cruzi Trans-Sialidase Family Analyzed with Camelids Single-Domain Antibodies” (PLoS ONE, 2008).
# Substitutions are numbered along the chain they refer to.
# B1: VHHSI52 (VHH)
# VHH: GGGLVQAGGSLRLSCAASGRTFYNYAMGWFRQAPGKEREFVAAISWSGGSTLYTDSVKGRFTISRANGQNTVYLQMNSLKPEDTAVYYCAADADAQPMGIIENYDYWGQG
# notes: also called clone SI52; not shown: His6, C-terminal, kept
# B2: VHHSI57 (VHH)
# VHH: B1 VHH with F22L, L52E, T54A, G68A, T71K, I100V
# notes: also called clone SI57; not shown: His6, C-terminal, kept
# B3: VHHSI96 (VHH)
# VHH: B1 VHH with R20P, L52Y, T54A, G68A, Q69H
# notes: also called clone SI96; not shown: His6, C-terminal, kept
# B4: VHHSI14 (VHH)
# VHH: B1 VHH with T54A, G68A, S78K, I100V
# notes: also called clone SI14; VHHS14; not shown: His6, C-terminal, kept
# B5: VHH clone WI58 (VHH)
# VHH: GGGLVQAGGSLRLSCAASGLTLGNYAMGWFRQAPGKERELVAAISWSGGSTYYPDSVKGRFTISRDNAKNTVYLQMNSLKPEDTAVYYCAADGQLVPLPRLSDGVDYWGKG
# notes: not shown: His6, C-terminal, kept
# Target: recombinant TcTS clone TcTS-12 (Trypanosoma cruzi (Cl-Brener strain))
# Assay: not given
# Settings: not given
row,Binder,other [% inhibition]
1,B1,57.2
2,B2,57.2
3,B3,59.5

# Target: recombinant TcTS clone TcTS-15 (Trypanosoma cruzi (Cl-Brener strain))
# Assay: not given
# Settings: not given
row,Binder,other [% inhibition]
1,B1,68.7
2,B2,81.2
3,B3,67.4

# Target: recombinant TcTS clone TcTS-24 (Trypanosoma cruzi (Cl-Brener strain))
# Assay: not given
# Settings: not given
row,Binder,other [% inhibition]
1,B1,98
2,B2,98.4
3,B3,94.2

# Target: recombinant TcTS clone TcTS-46 (Trypanosoma cruzi (Cl-Brener strain))
# Assay: not given
# Settings: not given
row,Binder,other [% inhibition]
1,B1,38.9
2,B2,31.7
3,B3,34.8

# Target: recombinant TcTS clone TcTS-49 (Trypanosoma cruzi (Cl-Brener strain))
# Assay: not given
# Settings: not given
row,Binder,other [% inhibition]
1,B1,49
2,B2,51.1
3,B3,24.4

# Target: T1, recombinant Trypanosoma cruzi trans-sialidase TcTS611/2 (Trypanosoma cruzi, clone TcTS611/2 …, UniProt Q26966)
# T1 construct: Trypanosoma cruzi trans-sialidase (TcTS), clone 611/2: entire globular core of TcTS without SAPA repeats; also called recombinant TcTS; pTrcTS611/2
# Assay: IAsys biosensor
# Settings: both partners purified
Binder,Kd [nM],koff [s⁻¹],kon [M⁻¹ s⁻¹]
B1,69,0.0103,149000
B2,86.3,0.0143,165000
B4,22.3,0.00265,119000
B3,48.4,0.017,352000

# Target: T1, recombinant Trypanosoma cruzi …
# Assay: cell-based or functional assay
# Settings: not given
row,Binder,other [% inhibition]
1,B1,81.3
2,B2,83.3
3,B3,80.5

# Target: T1, recombinant Trypanosoma cruzi …
# Assay: far-Western, overlay or dot blot; 300 ng of each His-tagged VHH spotted on nitrocellulose, probed with native TcTS611/2, revealed with rabbit anti-TcTS serum and HRP secondary
# Settings: both partners purified
row,Binder,binding result
1,B5,binds
